Results reported in patent US7727968B2, “Combination therapy for the treatment of acute leukemia and myelodysplastic syndrome” (priority 2002, dated 2010).
Structures can show the parent of a compound that is named as a salt.

What was measured:
[1] = tested on: patients with relapsed, refractory, or de novo AML; assay: Phase 1/2 study combining gemtuzumab ozogamicin with cytarabine and daunorubicin (Example 1); conditions: in the triple combination
Procedure: The maximum tolerated dose was determined to be cytarabine 100 mg/m^2/day by continuous infusion on days 1 through 7, daunorubicin 45 mg/m^2 by intravenous bolus on days 1 through 3, and gemtuzumab ozogamicin 6 mg/m^2 by 2-hour infusion on day 4.
A detailed safety and efficacy evaluation was performed on the first 19 patients treated with this combination induction regimen and subsequently followed for at least 28 days. There were sixteen men and three women enrolled with a median age of 46 years (range, 20 to 60). One, ten, and three patients were categorized in favorable-, intermediate- and poor-risk cytogenetic groups, respectively. Cytogenetic analysis was not available for five patients.

[2] = tested on: adult acute nonlymphocytic leukemia; conditions: used as a single agent; cited from earlier work
AML patients = assay: UK safety study combining gemtuzumab ozogamicin with intensive chemotherapy before the MRC AML15 trial (Example 2); format: in vivo, human
Procedure: The feasibility of combining gemtuzumab ozogamicin with intensive chemotherapy for induction and/or consolidation was evaluated in 67 patients in a safety study in the United Kingdom prior to the start of the Medical Research […] AML15 trial. The aim was to combine gemtuzumab ozogamicin with chemotherapy planned in the trial, (DAT; Daunorubicin, AraC, Thioguanine, or DA; Daunorubicin AraC; or FLAG-IDA; Fludarabine, AraC, G-CSF, Idarubicin) as course 1. Course 1 was given using gemtuzumab ozogamicin in an amount of 3 mg/m^2 on day 1 of chemotherapy in 55 patients. Thirty-three patients received gemtuzumab ozogamicin with DAT. Eight patients received gemtuzumab ozogamicin with DA. Fourteen patients received gemtuzumab ozogamicin with FLAG-Ida. Of the 55 patients treated, 41 […] entered complete remission with course 1 broken down as follows: […] DAT=26/32; (2) DA=7/8; and (3) FLAG-Ida=8/8. Prior experience in a separate trial designated MRC AML12 where 720 patients were treated with H-DAT alone in course 1, 64% of those patients achieved complete remission. In the present study, the median time to ANC recovery (1×10^9/l) was 27 days (range 9-54) and platelets >100×10^9/l was 30 (range 21-48) which is within the mean+ISD of the 720 patients treated with H-DAT alone in the MRC AML12 trial. Non-hemopoietic toxicity was confined to the liver. Overall the maximum toxicity was Grade 1=5 patients, Grade 2=22 patients, Grade 3=13 patients and Grade 4=10 patients. Of the Grade 3 and 4 toxicities, 7 were felt to be definitely associated with gemtuzumab ozogamicin therapy. A possible contributory factor was the inclusion of Thioguanine. Of the 39 recipients where Thioguanine was included in the schedules, 22 developed Grade 3 or 4 liver toxicity compared with 1 for 16 recipients of non-Thioguanine schedules. […]
The overall survival of all patients receiving gemtuzumab ozogamicin in a dose of 3 mg/m^2 with course 1 at 6 months is 73% and at 12 months is 68%. For the patient receiving non-Thioguanine induction with 3 mg/m^2 of gemtuzumab ozogamicin, the 6 month survival is 91%.

patients with AML = conditions: cited from earlier work
[3] = tested on: patients with poor prognosis AML; conditions: refractory AML; single dose GO 9 mg/m^2 three days prior to first pulse of chemotherapy; cited from earlier work
[4] = tested on: AML patients <60 years of age; conditions: cited from earlier work
[5] = GO 3 mg/m^2 with course 1 chemotherapy
[6] = all patients receiving GO 3 mg/m^2 with course 1

Nc1ccn([C@@H]2O[C@H](CO)[C@@H](O)[C@@H]2O)c(=O)n1 [cytarabine, 4-amino-1-(beta)-D-arabinofuranosyl-2(1H)-pyrimidinone]
maximum tolerated dose ([1]; continuous infusion days 1 through 7): 100 mg/m^2/day

COc1cccc2c1C(=O)c1c(O)c3c(c(O)c1C2=O)C[C@@](O)(C(C)=O)C[C@@H]3O[C@H]1C[C@H](N)[C@H](O)[C@H](C)O1 [daunorubicin hydrochloride, (1 S,3 S)-3-Acetyl-1,2,3,4,6,11-hexahydro-3,5,12-trihydroxy-10-methoxy-6,11-dioxo-1-naphthacenyl 3-amino-2,3,6-trideoxy-(alpha)-L-lyxo-hexopyranoside hydrochloride]
complete remission rates [2]: 40 to 50%

COc1cccc2c1C(=O)c1c(O)c3c(c(O)c1C2=O)C[C@@](O)(C(C)=O)C[C@@H]3O[C@H]1C[C@H](N)[C@H](O)[C@H](C)O1 [daunorubicin, (8S-cis)-8-acetyl-10-[(3-amino-2,3,6-trideoxy-(alpha)-L-lyxo-hexopyranosyl)oxy]-7,8,9,10-tetrahydro-6,8,11-trihydroxy-1-methoxy-5,12-naphthacenedione hydrochloride]
maximum tolerated dose ([1]; intravenous bolus days 1 through 3): 45 mg/m^2

gemtuzumab ozogamicin: recombinant humanized IgG4, kappa anti-CD33 antibody conjugated with N-acetyl-gamma calicheamicin via a bifunctional linker
feasibility (AML patients; GO 3 mg/m^2 in course 1 and GO 3 mg/m^2 in course 3, twelve patients): appears to be feasible | complete remission with course 1 (AML patients; GO 3 mg/m^2 on day 1 of chemotherapy (DAT, DA or FLAG-Ida), 41 of 55 patients treated): 85% | Grade 3 and 4 toxicities felt to be definitely associated with gemtuzumab ozogamicin therapy (AML patients; [5]): 7 | maximum liver toxicity Grade 1 (AML patients; [5]): 5 patients | maximum liver toxicity Grade 2 (AML patients; [5]): 22 patients | maximum liver toxicity Grade 3 (AML patients; [5]): 13 patients | maximum liver toxicity Grade 4 (AML patients; [5]): 10 patients | median time to ANC recovery (1×10^9/l) (AML patients; GO 3 mg/m^2 with course 1 chemotherapy, range 9-54): 27 days | median time to platelets >100×10^9/l (AML patients; GO 3 mg/m^2 with course 1 chemotherapy, range 21-48): 30 days | recipients developing Grade 3 or 4 liver toxicity (AML patients; Thioguanine included in the schedules, 39 recipients): 22 | overall survival at 6 months (AML patients; [6]): 73% | overall survival at 12 months (AML patients; [6]): 68% | 6 month survival (AML patients; non-Thioguanine induction with GO 3 mg/m^2): 91% | recipients developing Grade 3 or 4 liver toxicity (AML patients; non-Thioguanine schedules, 16 recipients): 1 | increased risk of developing significant hepatotoxicity (patients with AML; patients who did not undergo stem cell transplantation): ≤ 10% | response rate (patients with AML; patients with relapsed AML): < 40% | patients entering complete remission [3]: two of four | liver toxicity ([4]; GO 6 mg/m^2 dose with H-DAT or S-DAT): increased liver toxicity | toxicity in patients receiving GO in courses 1 and 2 ([4]; with H-DAT or S-DAT induction, one patient died): delayed hematological recovery and VOD | maximum tolerated dose ([1]; 2-hour infusion on day 4): 6 mg/m^2
